B1: C4BP α7β1: major C4BP isoform, 7 identical α-chains and 1 β-chain, purified from pooled human plasma (protein, UniProt P04003 49-597; P20851 18-252, looked up)
C4b-binding protein alpha …: NCGPPPTLSFAAPMDITLTETRFKTGTTLKYTCLPGYVRSHSTQTLTCNSDGEWVYNTFCIYKRCRHPGELRNGQVEIKTDLSFGSQIEFSCSEGFFLIGSTTSRCEVQDRGVGWSHPLPQCEIVKCKPPPDIRNGRHSGEENFYAYGFSVTYSCDPRFSLLGHASISCTVENETIGVWRPSPPTCEKITCRKPDVSHGEMVSGFGPIYNYKDTIVFKCQKGFVLRGSSVIHCDADSKWNPSPPACEPNSCINLPDIPHASWETYPRPTKEDVYVVGTVLRYRCHPGYKPTTDEPTTVICQKNLRWTPYQGCEALCCPEPKLNNGEITQHRKSRPANHCVYFYGDEISFSCHETSRFSAICQGDGTWSPRTPSCGDICNFPPKIAHGHYKQSSSYSFFKEEIIYECDKGYILVGQAKLSCSYSHWSAPAPQCKALCRKPELVNGRLSVDKDQYVEPENVTIQCDSGYGVVGPQSITCSGNRTWYPEVPKCEWETPEGCEQVLTGKRLMQCLPNPEDVKMALEVYKLSLEIEQLELQRDSARQSTLDKEL
C4b-binding protein beta chain: SDAEHCPELPPVDNSIFVAKEVEGQILGTYVCIKGYHLVGKKTLFCNASKEWDNTTTECRLGHCPDPVLVNGEFSSSGPVNVSDKITFMCNDHYILKGSNRSQCLEDHTWAPPFPICKSRDCDPPGNPVHGYFEGNNFTLGSTISYYCEDRYYLVGVQEQQCVDGEWSSALPVCKLIQEAPKPECEKALLAFQESKNLCEAMENFMQQLKESGMTMEELKYSLELKKAELKAKLL
B2: C4BP (β^−): C4BP isoforms lacking beta chain: C4BP (α7β0) or C4BP (α6β0) (protein, UniProt P04003 49-597, looked up)
C4b-binding protein alpha …: B1 C4b-binding protein alpha …

Tests used:
human Mo-DCs [1] = assay: Scanning electron microscopy of Mo-DC surface morphology; type: cell-based; parameters: key to Dendrite density and lenght: (−) negligible; (+) low; (++) moderate; (+++) high
Description: Monocytes were seeded on glass slides covered with either poly-L-lysine (25 μg/ml) or fibronectin (42 μg/ml), cultured for 5 days in complete RPMI medium supplemented with 800 U/ml GM-CSF, 500 U/ml IL-4, and the C4BP isoforms α7β1, α7β0, or Factor H (10 μg/ml), and further stimulated with LPS for 48 hours in the same medium. The resulting DCs were fixed in 1% paraformaldehyde and 1.25% glutaraldehyde in cacodylate buffer for 2 h. Finally, the cells were post-fixed in 1% OsO4, and dehydrated with graded series of ethanol followed by acetone. After dehydration the cells were dried in a critical-point dryer and coated with gold before observation by scanning electron microscopy (Zeiss DSM940A).

NSG immunodeficient mice = assay: Human xeno-graft-versus-host disease (xeno-GvHD) model; type: in vivo; conditions: co-transfer or late infusion of treated monocyte-derived DCs (5×10^5/mouse) with human PBMCs; versus PBMCs alone
Description: We assessed the in vivo tolerogenic or regulatory capacity of C4BP(β^−)-treated or Factor H-treated monocyte-derived DCs in a human xeno-graft-versus-host disease (xeno-GvHD) model (King et al. (2009) Clin. Exp. Immunol. 157: 104-118). Intravenous injection of human peripheral blood mononuclear cells (PBMCs; 10×10^6/mouse) induced xeno-GvHD in NSG immunodeficient mice (The Jackson Laboratory) (8-12 weeks of age) (median survival time 30-40 days).

human Mo-DCs [2] = assay: Flow cytometry of cell surface markers on treated, LPS-matured Mo-DCs; type: cell-based; parameters: key to HLA-DR / CD40 / CD83 / CD86 / CD14 / CD1a / CCR7: (−) negligible; (+) low; (++) moderate; (+++) high
Description: Peripheral blood mononuclear cells (PBMCs) were obtained from buffy coat preparations belonging to healthy donors from the Blood and Tissue Bank (Barcelona, Spain) after Ficoll-Paque™ density centrifugation (GE Healthcare Bio-Sciences AB; Uppsala, Sweden). Monocytes were purified by two different methods: 1) Cells were plated at 1×10^6 cells/ml in 60 mm culture plates (Corning, Spain) in RPMI without serum and allowed to adhere for 2 h at 37° C. in 5% CO2. The non-adherent cells were removed by washing in PBS. […] 2) Cells were purified using colloidal super-paramagnetic microbeads conjugated with monoclonal mouse anti-human CD14 antibodies (MACS, Miltenyi Biotec, Auburn, Calif., or EasySep® Positive Selection Cocktail, StemCell Technologies, Grenoble, France). The purity of CD14^+ cells was tested by CD14 staining and flow cytometry analysis (>90% CD14^+ cells). Monocyte-derived DCs (Mo-DCs) were generated supplementing the monocyte cultures with complete RPMI 1640 medium plus GM-CSF (800 UI/ml) and IL-4 (500 UI/ml) (both from Gentaur, Kampenhout, Belgium) at day 0 and day 3 of culture. For DC maturation, at day 5 iDCs were further stimulated for 48 h with 5 μg/ml LPS (Escherichia coli 055.B5, Sigma L2880, Copenhagen, Denmark).
Cell surface phenotypes were analyzed using the following monoclonal antibodies: FITC-conjugated anti-HLA-DR (Immu-357), FITC-conjugated anti-CD83 (HB15a), FITC-conjugated anti-CD14 (RMO52), PE-conjugated anti-CD40 (MAB89), PE-conjugated anti-CD1a (BL6), PE-conjugated anti-CD80 (MAB104), PE-conjugated anti-CD86 (HA5.2B7) (all from Beckman-Coulter), Alexa Fluor 488-conjugated anti-CCR7 (TG8/CCR7, Biolegend, San Diego, Calif.), and the respective isotype controls from the same commercial sources. After washing with PBS, cells were subsequently stained with 3 μl MoAb/10^5 cells in 100 μl of FACS buffer (PBS containing 1% BSA and 0.1% sodium azide) for 20 min at room temp. Stained cells were analysed using a FACScalibur (Becton Dickinson). Mo-DCs were gated according to forward scatter (FSC) and side scatter (SSC) parameters. The results were analysed using CellQuestPro software (Becton Dickinson).
Both the different C4BP isoforms (α7β1, α7β0 and α6β0), and Factor H were added at 2, 5 and 10 μg/ml throughout Mo-DC differentiation, maturation, or both. Namely, for the differentiation assays the proteins were added at day 0 and replenished at day 3. For the maturation assays the proteins were added at day 5, either alone or combined with LPS. Finally, for the differentiation plus maturation assays the proteins were added at days 0, 3 and 5 (at the last time point, combined with LPS).

allogeneic CD3+ T cells = assay: Mixed leukocyte reaction ([3H]-thymidine incorporation); type: cell-based, human; parameters: key to Alloproliferation (T CD3^+): (−) negligible; (+) low; (++) moderate; (+++) high
Description: CD3^+ T cells (10^5/well) and C4BP-treated (α7β1 and α7β0), or Factor H-treated, and LPS-activated Mo-DCs were seeded in a 96-well round-bottom plate at various DC:T cell ratios (1:40, 1:80 and 1:160) and cultured in X-VIVO 15 medium (Biowittaker, Walkersville, Md.) supplemented with 100 μg/ml of streptomycin, 100 IU/ml of penicillin and 2 mM L-glutamine (all from Invitrogen) plus 2% Human AB Serum. Allospecific proliferation was measured after 5 days of incubation. At day 4, the […] [^3H]-thymidine (1 μCi/well, Perkin Elmer, Boston, Mass.) was added, followed by incubation for another 16 h. Labeled cells were then harvested onto glass-fiber filters with a Filtermate Harvester (Packard, Meriden, Conn.), and the T cell proliferation rate was determined by the amount of [^3H]-thymidine incorporation, which was measured in a TopCount NXT counter (Packard). Results are reported as the mean cpm±SD of thymidine incorporation in quadruplicate culture wells.

human Mo-DCs [3] = assay: Chemotaxis transwell assay towards CCL21; type: cell-based; parameters: key to Chemotaxis (CCL21): (−) negligible; (+) low; (++) moderate; (+++) high; conditions: for migration of LPS-matured Mo-DCs towards the chemokine CCL21: transwell, 2 h
Description: Mo-DCs differentiated and matured (LPS for 48 h) in presence of the C4BP isoforms α7β1, α7β0, or Factor H, were tested for migration toward the CCL21 chemokine using transwell assays. Briefly, the lower chambers of transwell plates (polycarbonate filters of 8.0 μm pore size; Costar, Corning, N.Y.) were filled with 400 μl of complete RPMI with or without CCL21 (200 ng/ml). A total of 1×10^5 DCs in 100 μl of complete RPMI were added into the upper chamber, and cells were incubated at 37° C. for 2 h. Cells migrated into the lower chambers were harvested and counted with a FACScalibur flow cytometer acquiring events for a fixed time period of 2 min using CellQuest software (Becton Dickinson). The migration assays for all stimulation conditions were performed in duplicate wells. Values are given as percentage of migrated cells relative to the untreated, mDCs (100%).

[4] = surface marker, treated and LPS-induced DCs
[5] = treated throughout differentiation and maturation, LPS-matured
[6] = functional assay, treated and LPS-induced DCs

Row | Molecule | surface morphology of Mo-DCs (human Mo-DCs [1]; SEM after 48 h LPS maturation) | survival time (NSG immunodeficient mice) | expression of surface markers (CD14, HLA-DR, CD40, CD80, CD83, CD86, CD1a) (human Mo-DCs [2]; treated throughout differentiation and maturation, LPS-matured, vs untreated mDC) | allogeneic T cell proliferation (allogeneic CD3+ T cells; Mo-DCs pre-incubated and matured with LPS, DC:T 1:40, 1:80, 1:160, 5 days) | migration of LPS-matured Mo-DCs towards the chemokine CCL21 (human Mo-DCs [3]) | Dendrite density and lenght (human Mo-DCs [1]; morphology, treated and LPS-induced DCs) | surface receptor CCR7 on Mo-DCs (human Mo-DCs [2]; flow cytometry (MFI), LPS-matured) | CCR7 (human Mo-DCs [2]; [4]) | CD1a (human Mo-DCs [2]; [4]) | CD14 (human Mo-DCs [2]; [4]) | CD40 (human Mo-DCs [2]; [4]) | CD83 (human Mo-DCs [2]; [4]) | CD86 (human Mo-DCs [2]; [4]) | HLA-DR (human Mo-DCs [2]; [4]) | CD40 expression (human Mo-DCs [2]; [5]) | HLA-DR expression (human Mo-DCs [2]; [5]) | Alloproliferation (T CD3^+) (allogeneic CD3+ T cells; [6]) | Chemotaxis (CCL21) (human Mo-DCs [3]; [6])
1 | B1 | analogous appearance than untreated Mo-DCs | no significant protection | no effect | maximal allogeneic T cell proliferation | maximal migration |  |  |  |  |  |  |  |  |  |  |  |  | 
2 | B2 |  | significantly prolonged survival time |  |  | halted the migration | + | consistent down-regulation | ++ | + | + | ++ | + | + | +++ | unaltered | unaltered | + | −
